# B1: 抗人ROR1抗体UC961 (带有人IgG1) (antibody, from another filing, V domains shown)
# VH: QVQLQESGPGLVKPSQTLSLTCTVSGYAFTAYNIHWVRQAPGQGLEWMGSFDPYDGGSSYNQKFKDRLTISKDTSKNQVVLTMTNMDPVDTATYYCARGWYYFDYWGHGTLVTVSS
# VL: DIVMTQTPLSLPVTPGEPASISCRASKSISKYLAWYQQKPGQAPRLLIYSGSTLQSGIPPRFSGSGYGTDFTLTINNIESEDAAYYFCQQHDESPYTFGEGTKVEIK
# Target: 人ROR1 ECD蛋白 (胞外结构域aa30-406) (human) (UniProt Q01973)
# Experiment: BLI (Octet ForteBio), antibody on AHC probe, human ROR1 ECD in solution, 1:1 model; mean of two determinations
# UniProt Q01973, sequence (Q01973 30-406): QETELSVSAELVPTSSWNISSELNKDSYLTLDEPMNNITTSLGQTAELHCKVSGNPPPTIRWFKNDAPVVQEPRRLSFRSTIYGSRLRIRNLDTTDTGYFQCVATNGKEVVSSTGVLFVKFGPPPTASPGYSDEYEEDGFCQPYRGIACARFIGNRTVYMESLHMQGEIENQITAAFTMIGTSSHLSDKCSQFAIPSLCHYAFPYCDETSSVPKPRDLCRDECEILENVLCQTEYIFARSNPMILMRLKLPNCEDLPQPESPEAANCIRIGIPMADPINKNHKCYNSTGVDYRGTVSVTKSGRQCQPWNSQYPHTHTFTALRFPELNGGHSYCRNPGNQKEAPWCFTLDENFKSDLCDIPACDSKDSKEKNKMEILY
binder,measurement,value
B1,Kd,0.0158 µM
same,koff,0.0137 s⁻¹
same,kon,981000 M⁻¹ s⁻¹

# Reference: patent publication CN115043942A
